Laboratory results: paper PMC5923501

How the values were obtained:
Assay in all cases: flow cytometry on cells; 5 × 10^6 CHO745 cells expressing the receptor or chimera incubated with 10 μg of Alexa fluorophore conjugated eE2 in 600 μL PBS at room temperature for 2 h, washed three times with PBS; read-out MFI of Alexa-647; one representative experiment of three
[1] = biological target: scavenger receptor type B class I (SR-BI) (UniProt Q8WTV0)
[2] = biological target: hCD81 LEL-ceTSP9 backbone chimera (Caenorhabditis elegans | human) (UniProt P60033)
[3] = biological target: hCD81 LEL-hCD9 backbone chimera (human) (UniProt P60033)

UniProt Q8WTV0, sequence (Q8WTV0 whole entry): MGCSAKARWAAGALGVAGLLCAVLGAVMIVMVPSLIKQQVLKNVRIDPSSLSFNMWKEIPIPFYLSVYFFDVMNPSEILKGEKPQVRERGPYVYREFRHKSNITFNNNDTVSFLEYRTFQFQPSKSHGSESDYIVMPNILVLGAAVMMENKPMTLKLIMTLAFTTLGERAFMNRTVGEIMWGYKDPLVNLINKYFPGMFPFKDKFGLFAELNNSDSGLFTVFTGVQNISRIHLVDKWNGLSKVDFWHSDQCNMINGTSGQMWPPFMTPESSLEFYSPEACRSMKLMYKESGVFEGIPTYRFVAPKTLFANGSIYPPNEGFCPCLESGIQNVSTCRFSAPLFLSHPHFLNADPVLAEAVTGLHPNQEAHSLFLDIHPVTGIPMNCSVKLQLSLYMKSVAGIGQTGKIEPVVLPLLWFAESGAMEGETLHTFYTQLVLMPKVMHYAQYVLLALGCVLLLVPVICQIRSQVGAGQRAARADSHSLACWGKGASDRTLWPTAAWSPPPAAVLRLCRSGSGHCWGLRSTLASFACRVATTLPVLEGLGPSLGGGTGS

Row | Substance | MFI [1] | MFI [2] | fold change of binding against wildtype J6 eE2 [3] [fold]
1 | HCV E2 ectodomain (eE2) from genotype 1a (strain H77) (from UniProt P27958 384-725) (domain or fragment) | 22000 | 20000 | 
2 | HCV E2 ectodomain (eE2) from genotype 2a (strain J6) (from UniProt P26660 384-729) (domain or fragment) | 65000 | 15000 | 
3 | ΔHVR1 J6 eE2 (domain or fragment) |  |  | 3
